Measurements published in patent US20240116985A1, “STAPLED PEPTIDES AND METHODS THEREOF” (priority 2020, published 2024).
Starred links: 1 amine or outer side, 2 acyl side, 3 side chain; linkers in the order of their positions; H or OH if unused. Positions of bridges follow the written chain, without caps; N, C: chain ends. Non-standard residues stand in square brackets, D forms with d. Primed or numbered codes have the meaning given here. PyrS2″ = (S)-3-amino-1-((pent-4-en-1-yloxy)carbonyl)pyrrolidine-3-carboxylic acid (stapling residue), C=CCCCOC(=O)N1CC[C@@](N[*:1])(C(=O)[*:2])C1; B5(16) = 2-amino-2-(pent-4-en-1-yl)hept-6-enoic acid = 2,2-bis(4-pentenyl)glycine (stitching residue), C=CCCCC(CCCC=C)(N[*:1])C(=O)[*:2]; B5(4) = 2,2-bis(4-pentenyl)glycine = 2-amino-2-(pent-4-en-1-yl)hept-6-enoic acid (stitching residue), C=CCCCC(CCCC=C)(N[*:1])C(=O)[*:2]; B5(5) = 2,2-bis(4-pentenyl)glycine, 2-amino-2-(pent-4-en-1-yl)hept-6-enoic acid (stitching residue), C=CCCCC(CCCC=C)(N[*:1])C(=O)[*:2]; PyrS2 = (S)-3-amino-1-((pent-4-en-1-yloxy)carbonyl)pyrrolidine-3-carboxylic acid, C=CCCCOC(=O)N1CC[C@@](N[*:1])(C(=O)[*:2])C1; Phe(3-COOH) = N[C@@H](Cc1cccc(C(=O)O)c1)C(=O)O; Phe(2-Cl) = N[C@@H](Cc1ccccc1Cl)C(=O)O; Bta = N[C@@H](Cc1csc2ccccc12)C(=O)O; αAllylPro = C=CC[C@@]1(C(=O)O)CCCN1; tBuAla = CC(C)(C)C[C@H](N)C(=O)O; Cha = N[C@@H](CC1CCCCC1)C(=O)O

B1: I-1035 (peptide)
peptide: Ac-[αAllylPro]D[tBuAla][B5(5)]DDAAFL[PyrS2″][Phe(2-Cl)][Bta][dT]-NH2
modifications: staple 1-4, 4-11
B2: I-1030 (peptide)
peptide: Ac-[αAllylPro]D[tBuAla][B5(5)]EDAAFN[PyrS2″][Phe(2-Cl)][Bta][dT]-NH2
modifications: staple 1-4, 4-11
B3: I-1029 (peptide)
peptide: Ac-[αAllylPro]E[tBuAla][B5(5)]DDAAFN[PyrS2″][Phe(2-Cl)][Bta][dT]-NH2
modifications: staple 1-4, 4-11
B4: I-1046 (peptide)
peptide: Ac-[αAllylPro]D[Cha][B5(5)]DDAAFN[PyrS2″][Phe(2-Cl)][Bta]S-NH2
modifications: staple 1-4, 4-11
B5: I-1044 (peptide)
peptide: Ac-[αAllylPro]D[Cha][B5(5)]DDAAFS[PyrS2″][Phe(2-Cl)][Bta]Q-NH2
modifications: staple 1-4, 4-11
B6: I-1050 (peptide)
peptide: Ac-[αAllylPro]D[Cha][B5(5)]DDAAFS[PyrS2][Phe(2-Cl)][Bta]S-NH2
modifications: staple 1-4, 4-11
B7: I-2028 (peptide)
peptide: Ac-[αAllylPro]D[tBuAla][B5(5)]D[Phe(3-COOH)]AAFS[PyrS2″][Phe(2-Cl)][Bta]V-NH2
modifications: staple 1-4, 4-11
B8: I-2023 (peptide)
peptide: Ac-[αAllylPro]D[tBuAla][B5(5)]D[Phe(3-COOH)]AAFA[PyrS2″][Phe(2-Cl)][Bta]A-NH2
modifications: staple 1-4, 4-11
B9: I-2026 (peptide)
peptide: Ac-[αAllylPro]D[tBuAla][B5(5)]D[Phe(3-COOH)]AAFA[PyrS2″][Phe(2-Cl)][Bta][dA]-NH2
modifications: staple 1-4, 4-11
B10: I-2032 (peptide)
peptide: Ac-[αAllylPro]D[tBuAla][B5(5)]D[Phe(3-COOH)]AAFN[PyrS2″][Phe(2-Cl)][Bta]V-NH2
modifications: staple 1-4, 4-11
B11: I-2024 (peptide)
peptide: Ac-[αAllylPro]D[tBuAla][B5(5)]D[Phe(3-COOH)]AAFA[PyrS2″][Phe(2-Cl)][Bta]V-NH2
modifications: staple 1-4, 4-11
B12: I-2029 (peptide)
peptide: Ac-[αAllylPro]D[tBuAla][B5(5)]D[Phe(3-COOH)]AAFS[PyrS2″][Phe(2-Cl)][Bta]F-NH2
modifications: staple 1-4, 4-11

These binders were tested against Bcat-Halo (UniProt P35222) (assay: NanoBRET Abs IC50, HEK293 cells transfected with Bcat-Halo and TCF4-Luc (competitor: TCF4-Luc); cellular assay).
Sequence of Bcat-Halo (P35222 whole entry): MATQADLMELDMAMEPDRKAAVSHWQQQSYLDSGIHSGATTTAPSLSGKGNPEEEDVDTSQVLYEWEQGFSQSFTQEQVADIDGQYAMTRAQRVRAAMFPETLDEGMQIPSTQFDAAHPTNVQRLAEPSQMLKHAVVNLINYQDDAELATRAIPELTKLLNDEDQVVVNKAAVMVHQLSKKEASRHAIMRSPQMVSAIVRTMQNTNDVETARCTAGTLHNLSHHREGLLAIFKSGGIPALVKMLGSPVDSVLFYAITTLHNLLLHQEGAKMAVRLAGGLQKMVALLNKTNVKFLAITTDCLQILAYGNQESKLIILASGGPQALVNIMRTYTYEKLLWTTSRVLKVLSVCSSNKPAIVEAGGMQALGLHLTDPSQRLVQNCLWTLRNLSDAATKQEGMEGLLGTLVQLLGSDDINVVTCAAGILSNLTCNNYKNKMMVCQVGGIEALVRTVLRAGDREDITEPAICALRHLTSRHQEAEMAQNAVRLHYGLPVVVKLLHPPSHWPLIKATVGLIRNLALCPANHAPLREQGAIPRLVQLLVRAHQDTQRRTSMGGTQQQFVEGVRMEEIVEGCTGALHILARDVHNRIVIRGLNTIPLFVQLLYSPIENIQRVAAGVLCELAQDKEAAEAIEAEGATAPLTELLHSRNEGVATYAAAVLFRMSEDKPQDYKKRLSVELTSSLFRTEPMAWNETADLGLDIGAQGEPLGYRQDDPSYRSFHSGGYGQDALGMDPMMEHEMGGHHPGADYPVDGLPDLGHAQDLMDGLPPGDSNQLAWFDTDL
Binder B1 has an IC50 of 10200 nM. With B2 the IC50 was > 20000 nM. With B3 the IC50 was > 20000 nM. For B4, the IC50 was 20500 nM. Work on B5 yielded an IC50 of 17600 nM. B6 gave an IC50 of 24800 nM.

What follows are binders tested against full-length beta-Catenin (Uniprot ID P35222) (Homo sapiens (Human)) (UniProt P35222) (assay: FP competition; full-length beta-catenin + 5FAM-TCF4(10-53) probe).
Target sequence in this assay (P35222 whole entry, one chain of several): as the sequence (P35222 whole entry) above
Work on B7 yielded an IC50 of 32 nM. B8 gave an IC50 of 32 nM. B9 was tested, and the IC50 was 26 nM. Binder B10 has an IC50 of 16 nM. For B11, the IC50 was 78 nM. Work on B12 yielded an IC50 of 35 nM.

These binders were tested against full-length beta-Catenin (Uniprot ID P35222) (Homo sapiens (Human)) (UniProt P35222) (assay: cell-based or functional assay).
B1 was tested, and the DLD1 reporter assay Abs IC50 was > 20000 nM. B2 was tested, and the DLD1 reporter assay Abs IC50 was > 20000 nM. For B3, the DLD1 reporter assay Abs IC50 was > 20000 nM. In the case of B5, the DLD1 4% Abs IC50 is reported as 14500 nM and the DLD1 reporter assay Abs IC50 is reported as 20000 nM. Work on B6 yielded a DLD1 reporter assay Abs IC50 of 11200 nM.

The binders below were run against Bcat-Halo (UniProt P35222) (assay: NanoBRET (Abs IC50) in HEK293 cells; Bcat-Halo / TCF4-Luc).
Binder B7 has an IC50 of 17600 nM. B8 showed an IC50 of 7800 nM. Work on B9 yielded an IC50 of 9700 nM. Work on B10 yielded an IC50 of 20900 nM. Work on B11 yielded an IC50 of 17900 nM. B12 was tested, and the IC50 was 26200 nM.

The binders below were run against full-length beta-Catenin (Uniprot ID P35222) (Homo sapiens (Human)) (UniProt P35222) (assay: fluorescence polarization competition; full-length beta-catenin, competitor 5FAM-TCF4 10-53).
Target sequence in this assay (P35222 whole entry, one chain of several): as the sequence (P35222 whole entry) above
B1 gave an IC50 of 21 nM. B2 was tested, and the IC50 was 507 nM. B3 was tested, and the IC50 was 823 nM.

The binders below were run against Bcat-Halo (UniProt P35222) (assay: NanoBRET absolute IC50 in HEK293 cells; Bcat-Halo, competitor TCF4-Luc).
In the case of B1, the IC50 is reported as 10200 nM. In the case of B2, the IC50 is reported as > 20000 nM. With B3 the IC50 was > 20000 nM.

What follows are binders tested against full-length beta-Catenin (Uniprot ID P35222) (Homo sapiens (Human)) (UniProt P35222) (assay: fluorescence polarization competition; 10 nM full-length beta-catenin + 10 nM 5FAM-TCF4 10-53 as competitor probe).
Target sequence in this assay (P35222 2-781 limits assumed): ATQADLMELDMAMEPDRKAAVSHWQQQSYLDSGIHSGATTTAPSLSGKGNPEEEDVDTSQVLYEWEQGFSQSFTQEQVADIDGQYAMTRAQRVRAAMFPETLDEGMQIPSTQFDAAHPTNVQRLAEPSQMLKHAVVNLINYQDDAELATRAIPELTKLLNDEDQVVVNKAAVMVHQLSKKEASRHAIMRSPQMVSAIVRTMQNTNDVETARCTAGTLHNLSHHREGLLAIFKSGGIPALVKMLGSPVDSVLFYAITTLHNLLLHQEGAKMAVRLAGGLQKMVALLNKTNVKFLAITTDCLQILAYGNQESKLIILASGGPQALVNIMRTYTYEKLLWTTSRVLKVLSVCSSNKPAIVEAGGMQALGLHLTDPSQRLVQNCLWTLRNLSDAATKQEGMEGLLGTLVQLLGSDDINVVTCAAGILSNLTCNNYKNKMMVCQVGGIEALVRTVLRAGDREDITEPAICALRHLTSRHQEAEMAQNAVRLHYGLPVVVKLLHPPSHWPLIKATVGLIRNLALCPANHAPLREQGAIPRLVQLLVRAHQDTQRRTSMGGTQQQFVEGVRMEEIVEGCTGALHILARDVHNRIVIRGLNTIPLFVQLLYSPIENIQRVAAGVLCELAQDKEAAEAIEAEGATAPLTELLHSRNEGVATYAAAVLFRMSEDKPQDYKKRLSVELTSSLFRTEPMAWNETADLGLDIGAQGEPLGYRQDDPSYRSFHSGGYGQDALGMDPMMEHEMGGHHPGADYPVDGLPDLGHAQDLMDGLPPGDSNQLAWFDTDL
Binder B1 has an EC50 of 21 nM. B2 gave an EC50 of 507 nM. B3 showed an EC50 of 823 nM. B4 gave an EC50 of 5 nM. For B5, the EC50 was 5 nM. B6 gave an EC50 of 5 nM.

What follows are binders tested against full-length beta-Catenin (Uniprot ID P35222) (Homo sapiens (Human)) (UniProt P35222) (assay: fluorescence polarization competition; full-length beta-catenin with 5FAM-TCF4(10-53) probe, peptide titrated).
Target sequence in this assay (P35222 whole entry, one chain of several): as the sequence (P35222 whole entry) above
In the case of B4, the IC50 is reported as 5 nM. B5 showed an IC50 of 5 nM. Work on B6 yielded an IC50 of 5 nM.
